{"source": "paper PMC5493979", "origin": "cited, not measured here", "molecular_target": "LRAT (UniProt O95237)", "sequence (O95237 whole entry)": "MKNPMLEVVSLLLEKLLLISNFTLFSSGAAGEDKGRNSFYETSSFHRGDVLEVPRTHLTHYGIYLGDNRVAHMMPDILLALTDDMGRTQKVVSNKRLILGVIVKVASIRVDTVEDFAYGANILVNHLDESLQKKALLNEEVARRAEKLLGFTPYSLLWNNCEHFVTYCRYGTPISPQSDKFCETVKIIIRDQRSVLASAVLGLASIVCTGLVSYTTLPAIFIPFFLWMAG", "data": [{"substance": "apo-CRBP1 (from UniProt P09455)", "values": [{"measurement": "Ki", "result": 200, "unit": "nM"}]}]}
